The experiment concerns the target SARS-CoV-2 receptor binding domain (RBD; residues 331–524) (SARS-CoV-2, early isolate (GenBank …, UniProt P0DTC2). Description: BLI. In general terms: Biolayer interferometry detects binding as a change in optical thickness at a sensor tip.

Data on five molecules can be found in article PMC7442695 (Nature, 2020).

B1: C119 monoclonal antibody (IgG) (antibody, V domains shown)
VH: QVQLVQSGAEVKKPGASVKVSCKASGYTFTSYYMHWVRQAPGQGLEWMGIINPSGGSTSYAQKLQGRVTMTRDTSTSTVYMELSSLRSEDTAVYYCARANHETTMDTYYYYYYMDVWGKGTTVTVSS
VL: QSALTQPASVSGSPGQSITISCTGTSSDVGGYKYVSWYQRHPGKAPKLMIYDVSNRPSGVSNRFSGSKSGNTASLTISGLQAEDEADYYCSSYTSSSTSVVFGGGTQLTVL
For the molecule B1, the binding result is given as “binds”.

B2: C101 monoclonal antibody (IgG) (antibody, V domains shown)
VH: QVQLVESGGGLIQPGGSLRLSCAASGFIVSSNYMSWVRQAPGKGLEWVSVIYSGGSTFYTDSVKGRFTISRDNSKNTLYLQMNSLRAEDTAVYYCVRDYGDFYFDYWGQGTLVTVSS
VL: EIVLTQSPGTLSLSPGERATLSCRASQSVSSSYLAWYQQKPGQAPRLLIYGASSRATGIPDRFSGGGSETDFTLTISRLEPEDCAVYYCQQYGSSPRTFGQGTKVEIK
In the case of B2, the binding result is on record as “binds”.

B3: C009 monoclonal antibody (IgG) (antibody, V domains shown)
VH: not shown
VL: QSALTQPPSASGSPGQSVTISCTGTSSDVGGYNYVSWYQQHPGKAPKLMIYEVSKRPSGVPDRFSGSKSGNTASLTVSGLQAEDEAEYYCSSDAGSNNVVFGGGTKLTVL
As to B3, the binding result is reported as “binds”.

B4: C121 monoclonal antibody (IgG) (antibody, V domains shown)
VH: not shown
VL: QSALTQPASVSGSPGQSITISCTGTSSDVGSYNLVSWYQQHPGKAPKLMIYEGSKRPSGVSNRFSGSKSGNTASLTISGLQAEDEADYYCCSYAGSSTLVFGGGTKLTVL
As to B4, the binding result is given as “binds”.

B5: C002 monoclonal antibody (IgG) (antibody, V domains shown)
VH: EVQLVESGGGVVQPGRSLRLSCAASGFTFSIYGMHWVRQAPGKGLEWVAVISYDGSNKYYADSVKGRFTISRDNSKNTLYLQMNSLRAEDTAVYYCAKEGRPSDIVVVVAFDYWGQGTLVTVSS
VL: not shown
Turning to B5, the binding result is on record as “binds”.
